Patent publication US20130210108

Target: malate dehydrogenase (MDH)

B1: PP1084 protein (3-Cys peroxiredoxin of Pseudomonas putida KT2440), His-tagged, non-irradiated or gamma-irradiated (protein)
chain: MSVLVGKKAPDFTVPAVLGNGEIVDSFNLASAIKGKYGLVFFYPLDFTFVCPSELIALDNRIPDFQARNVEVIGVSIDSHFTHNAWRNTPVNNGGIGQVKYTLAADMTHEICKAYDVESEGGVAFRGAFLIDTNGVVRSQIVNDLPLGRNMDELLRLVDALQFHEEHGEVCPANWKKGDKGMNASPEGVAAYLSENAGKL
chaperone activity against the non-irradiated group: Chaperone activity of Prx protein was three-fold increased by gamma irradiation at 15˜30 kGy, compared with the non-irradiated group | increase rate of OD650nm of MDH heated at 43 C (holdase chaperone activity): the lowest OD was observed at 30 kGy, indicating that chaperone activity was highest at 30 kGy

B2: PA3529 protein (2-Cys peroxiredoxin of Pseudomonas aeruginosa PAO1), His-tagged, non-irradiated or gamma/UV-irradiated (protein)
chain: MSVLVGKKAPDFNVAAVLGNGEIVESFTLSEAIKGKYGLVFFYPLDFTFVCPSELIALDHRIPEFQARNVEVIGVSIDSHFTHNAWRNTPVDKGGIGAVKYTLAADTKHEIAKAYDVESDGGVAFRGAFLIDKEGVVRSQIVNDLPLGRNMDELLRLVDALQFHEEHGEVCPANWKKGDKGMTASPEGVAKYLAENASKL
MDH aggregation at 43 C for 15 minutes, PaPrx:MDH 1:1 (molecular chaperone activity after UV irradiation): as the UV irradiation time increased, the molecular chaperone activity increased regularly | chaperone activity against the non-irradiated group: Chaperone activity of Prx protein was three-fold increased by gamma irradiation at 15˜30 kGy, compared with the non-irradiated group | increase rate of OD650nm of MDH heated at 43 C (holdase chaperone activity): the lowest OD was observed at 30 kGy, indicating that chaperone activity was highest at 30 kGy
